# Data taken from the nanobody polyreactivity screen of Harvey et al. (2022).
# Test: yeast display, Sf9 membrane polyspecificity reagent, FACS + sequencing; frameworks hold sequencing errors
# Outline: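 Polyreactivity labels are assigned by the sorting gate from which each nanobody was recovered. The gates were low and high (top ~1%), set on anti-HA fluorescence for expression and streptavidin fluorescence for reagent binding. Before sorting, galactose-induced (36–48 hours) yeast display cells were stained for 1 hour at 4 °C with 10% biotinylated, detergent-solubilized Sf9 membrane reagent.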
row,Sequence,polyreactivity (PSR sort gate)
1,QVQLVESGGGLVQAGGSLRLSCAASGSIFGGYAMGWYRQAPGKERELVARITDRGGSTDYADSVKGRFTISRDNAKNTVYLQMNSLKPEDTAVYYCAKRGDRYEKRPRDYWGQGTQVTVSS,low polyreactivity
2,QVQLVESGGGLVQAGGSLRLSCAASGSIFGGYAMGWYRQAPGKERELVAVISSGGSTNYADSVKGRFTISRDNAKNTVYLQMNSLKPEDTAVYYCAATVIYAYRGHFYQYDYWGQGTQVTVSS,high polyreactivity
3,QVQLVESGGGLVQAGGSLRLSCAASGSIFGGYAMGWYRQAPGNERELVAAITYSAGNTYYADSVKGRFTISRDNAKNTVYLKMKSLKPEDTAVYYCAARTYRGPQYQYGNNYWGQGTQVTVSS,high polyreactivity
4,QVQLVESGGGLVQAGGSLRLSCAASGSIFGGYGMGWYRQAPGKERQLVAAITSGSSTYYADSVKGRFTISRDNAKNTVYLQMNSLKPEDTAVYYCAARPYPHSAYQGDYWGRGTQVTVSS,low polyreactivity
5,QVQLVESGGGLVQAGGSLRLSCAASGSIFGINAMGWYRPAPGKERQLVAAISGSTSRSYYADSVKGRFTISRDNAKNTVYLQMNSLKPEDTAVYYCAVVGLRSVTRRSYYWGQGTQVTVSS,high polyreactivity
6,QVQLVESGGGLVQAGGSLRLSCAASGSIFGIYAMGWYRQAPGKERELVAAIDSSGTSTYYADSVKGRFTISRDNAKNTVYLQMNSLKPEDTAVYYCAAYHRISKNNYLGQGTQVTVSS,low polyreactivity
7,QVQLVESGGGLVQAGGSLRLSCAASGSIFGIYTMGWYRQAPGKERELVAAITSVGSTNYADSVKGRFTISRDNAKNTVYLQMNSLKPEDTAGYYCARASAWYVTLVGKYTKYDYWGQGTQVTVSS,low polyreactivity
8,QVQLVESGGGLVQAGGSLRLSCAASGSIFGIYVMGWYRQAPGKERELVAGISTRGGSTYYADSVKGRFTISRDNAKNTVYLQMNSLKPEDTAVYYCAAVPASYRYPMYYWGQGTQVNVSS,low polyreactivity
9,QVQLVESGGGLVQAGGSLRLSCAASGSIFGKDAMVWYRQAPGKEREFVAGIRGSGTRTYYADSVKGRFTISRDNAKNTVYLQLNSLKPEDTAVYYCNAVFGYRGPYYYWGQGTQVTVSS,high polyreactivity
10,QVQLVESGGGLVQAGGSLRLSCAASGSIFGKNAMGWYRPAPGKERELVAAITRRGGSTYYADSVKGRFTISRDNAKNTVYLQMISLKPEDTAVYYCNALLTGGYQDSYPDDYWGQGTQVTVSS,high polyreactivity
11,QVQLVESGGGLVQAGGSLRLSCAASGSIFGKNVMGWYRQAPGKERELVAAISRSGGRTYYADSVKGRFTISRDNAKNTVYLQMNSLKPEDTAVYYCAADGQPIGQQTYDYWGQGTQVTVSS,high polyreactivity
12,QVQLVESGGGLVQAGGSLRLSCAASGSIFGKYAMGWYRQAPAKERELVAAISDSGSITYYADSVKGRFTISRDNAKNTVYLQMNSLKPEDTAVYYCAAEVKYYQSFKYDYWGQGTQVTVSS,high polyreactivity
13,QVQLVESGGGLVQAGGSLRLSCAASGSIFGKYAMGWYRQAPGKERELVAAISWSGGSTYYADSVKGRFTISRDNAKNTVYLQMNSLKPEDTAVYYCAKRRVYYGSRYNYWGQGTQVTVSS,high polyreactivity
14,QVQLVESGGGLVQAGGSLRLSCAASGSIFGKYAMGWYRQAPGKERELVAAITIRGGSTYYADSVKGRFTISRDNAKNTVYLQMNSLKPEDTAVYYCNAVSKYYFGVDYWGQGTQVTVSS,high polyreactivity
15,QVQLVESGGGLVQAGGSLRLSCAASGSIFGLNAMGCYRQAPGKERELVAAISGGSTNYADSVKGRFTISRDNAKNTVYLQMNSLKPEDTAVYYCAARARRRYYYWGQGTQVTVSS,high polyreactivity
16,QVQLVESGGGLVQAGGSLRLSCAASGSIFGLYAMGWYRQAPGKERELVAAISSSGGTTYYADSVKGRFTISRDNEKNTVYLQMNSLKPEDTAVYYCATDYYDDVTIGYDYWGQGTQVTVSS,low polyreactivity
17,QVQLVESGGGLVQAGGSLRLSCAASGSIFGLYAMGWYRQAPGKERELVAAITDSTGSTSYADSVKGRFTISRDNAKNTVYLQMNSLKPEDTAVYYCAAGQGRWRHGFDYWGQGTQVTVSS,low polyreactivity
18,QVQLVESGGGLVQAGGSLRLSCAASGSIFGLYAMGWYRQAPGKERELVARITRSGGRTYYADSVKGRFTISRDNAKNTVYLQMNSLKPEDTAVYYCNKLLPSYVLPDDYWGQGTQVTVSS,low polyreactivity
19,QVQLVESGGGLVQAGGSLRLSCAASGSIFGNYVMGWYRQAPGKERELVAAIRWTGGSTYYADSVKGRFTISRDNAKNTVYLQMNSLKAEDTAVYYSIADSSDDYDYWGQGTQVTVSS,low polyreactivity
20,QVQLVESGGGLVQAGGSLRLSCAASGSIFGPNAMGWYRQSPGKERELVAAISWGGGSTYYADSVKARITISRDNAINTVYLQMNILKPEDTGVYYCNASGYHDTAVRYDYWGQGTQVTVSS,low polyreactivity
21,QVQLVESGGGLVQAGGSLRLSCAASGSIFGPYAMGWYRQAPGKERELVAAISTRGGRTYYADSVKGRFTISRDNAKNTVYLQMISLKPEDTAVYYCNDRRSDSRSYDYWGQGTQVTVSS,high polyreactivity
22,QVQLVESGGGLVQAGGSLRLSCAASGSIFGPYAMGWYRQAPGKERELVATITSGGRTYYADSVKGRFTISRDNAKNTVYLQLNSLKPEDTAVYYCAAAGKGRYHFRSTMDYWGQGTQVTVSS,high polyreactivity

row,Sequence,polyreactivity (PSR sort gate)
1,QVQLVESGGGLVQAGGSLRLSCAASGSIFGPYAMGWYRQAPGKERELVAVISRSGGSTYYADSVKGRFTISRDNAKNTVYLQMNSLKPEDTAVYYCAAYRGPRADYYWGQGTHVTVSS,high polyreactivity
2,QVQLVESGGGLVQAGGSLRLSCAASGSIFGPYAMGWYRQAPWKERELVATSTYYADSVKGRFTISRDNAKNTVYLQMNSLKPEDTAVYYCAKTPYYSGYGWGYDYWGQGTQVTVSS,low polyreactivity
3,QVQLVESGGGLVQAGGSLRLSCAASGSIFGPYVMGWYRQAPGKERELVAAISKSGGSTYYADSVKGRFTISRDNAKNTVYLQMNSLKPEDTAVYYCATDYLGGGKRYYYWGQGTQVTVSS,high polyreactivity
4,QVQLVESGGGLVQAGGSLRLSCAASGSIFGPYVMGWYRQAPGKERELVAAITFSGGSTYYADSVKGRFTISRDNAKNTVYLQMNSLKPEDTAVYYCNARPYSYRGSKRMYYWGQGTQVTVSS,high polyreactivity
5,QVQLVESGGGLVQAGGSLRLSCAASGSIFGQYAMGWYRQAPGKERELVASISASAASTYYADSVKGRFTISRDNAMNTVYLQLNSLKPEDTAVYYCNATTRWIGYVTIDFDYWGQGTQVNVSS,low polyreactivity
6,QVQLVESGGGLVQAGGSLRLSCAASGSIFGRNAKGWYRQAPRKERELVAAINSGGSTNYADSVKGRFTISRDNAKNTVYLQMNSLKPEDTAVYYCAARTYSSGRYYGYVAFYYWGQGTQVTVSS,high polyreactivity
7,QVQLVESGGGLVQAGGSLRLSCAASGSIFGRNAMGWSRQAPGTERELVARISSRGGSTYYADSVKGRFTISRDNAKNTVYLQMNSLKPEDTAVYYCNRDRTWQTNDYWGQGTQVTVSS,high polyreactivity
8,QVQLVESGGGLVQAGGSLRLSCAASGSIFGRNAMGWYRQAPGKERELVAAITWRTGSTFYADSVKGRFTISRDNAKNTVYLQMNCLKPEDTAVYYCNAAGPAYSYYHWLWGDYNSWRQGTQVTVSS,low polyreactivity
9,QVQLVESGGGLVQAGGSLRLSCAASGSIFGRNAMGWYRQAPGKERELVAGMFYADSEKGRFTISRDNAKNTVYLQMNSLKPEDTAVYYCNADGTTDISNDNWYGYWGQGTQVTVSS,low polyreactivity
10,QVQLVESGGGLVQAGGSLRLSCAASGSIFGRNTMGWYRPAPGKERELVAAISSGGRTYYADSVKGRFTISRDNAKITVYLQINSLKPEDTAVYYCAAALRRRRADFDYWGQGTQVTVSS,high polyreactivity
11,QVQLVESGGGLVQAGGSLRLSCAASGSIFGRNTMGWYRQAPGKERELVAAISSRGTSTYYADSVKGRFTISRDNAKNTVYLQMNSLKPEDTAVYYCAARVYPYNYWGQGTQVTVSS,high polyreactivity
12,QVQLVESGGGLVQAGGSLRLSCAASGSIFGRNTMGWYRQAPGKERELVAAISSSGGSTRYADSVKGRFTISRDNAKITVYLQMNSLKQEDTAVYYCNDRPRTIYVNRKYDYWGQCTQVTVSS,high polyreactivity
13,QVQLVESGGGLVQAGGSLRLSCAASGSIFGRYAKRWYRQAPGKERELVAAISWNGGSTYYADSVKGRFTISRDNAKKTVDLQMNSLKPEDPAVYYCAVLSWWTKLSRRFYYWGQGTQVTVSS,high polyreactivity
14,QVQLVESGGGLVQAGGSLRLSCAASGSIFGRYAMGWYRQAPGKERELVAAIDGGGSTNYADSVKGRFTISRDNAKNTVYVQMNSLKPEDTAVYYCATEAKAYRYYYRTRHYYYWGQGTQVTVSS,low polyreactivity
15,QVQLVESGGGLVQAGGSLRLSCAASGSIFGRYAMGWYRQAPGKERELVAAISWRGGSTYYADSVKGRFTISRDNAKNTVYLQMNRLKPEDTAVYYCAKSGTFYYPRYDYWGQGTQVTVSS,high polyreactivity
16,QVQLVESGGGLVQAGGSLRLSCAASGSIFGRYAMGWYRQAPGKERELVAAISWRGGSTYYADSVKGRFTISRDNAKNTVYLQMNSLKPEDTAVYYCNVPYRSGYSHRYDYWGQGTQVTVSS,high polyreactivity
17,QVQLVESGGGLVQAGGSLRLSCAASGSIFGRYTMGWYRQAPGKERELVAAISSSGGRTYYADSVKGRFTISRDNAKNTVFLQMNSLKPEDTAVYYCNNGYGYEYYWGQGTQVTVSS,low polyreactivity
18,QVQLVESGGGLVQAGGSLRLSCAASGSIFGRYVMGWYRQAPGKERELVARITQSGGSTYYADSVKGRFTISRDNAKNTVYLQMNSLKPEDTAVYYCAAATSWWWLYYWGQGTQVTVSS,high polyreactivity
19,QVQLVESGGGLVQAGGSLRLSCAASGSIFGSNAMGWYRQAPGKERELVASITSSGGSTHYADSVKGRFTISRDNAKNTVYLQMNSLKPEDTAVYYCATRAYGYYRWLYDYWGQGTQVTVSS,low polyreactivity
20,QVQLVESGGGLVQAGGSLRLSCAASGSIFGSNMGWYRQAPGKERELVAAISSRGGRTYYADSVKGRFTISRDNAKNTVYLQMNSLKPEDTAVYYCATRTFRGCRGYEYWGQGTQVTVSS,high polyreactivity
21,QVQLVESGGGLVQAGGSLRLSCAASGSIFGSYAMGWSRQAPGKERELVAAISKSGGNTYYADSVKGRFTISRDNAKNTVYLQMNSLKPEDTAVYYCAAYGFYRWRGYDYWGQGTQVTVSS,high polyreactivity
